Measurements as given in patent publication US7541169B2, “Sulfotransferase sequence variants” (Mayo Foundation for Medical Education and Research, priority 2001, dated 2009).
Numbering of substitutions follows the chain as printed.

B1: Asp60Ala: SULT1C1 polypeptide having an alanine at amino acid residue 60 in place of aspartic acid (protein)
chain: MALTSDLGKQIKLKEVEGTLLQPATVDNWSQIQSFEAKPDDLLICTYPKAGTTWIQEIVAMIEQNGDVEKCQRAIIQHRHPFIEWARPPQPSGVEKAKAMPSPRILKTHLSTQLLPPSFWENNCKFLYVARNAKDCMVSYYHFQRMNHMLPDPGTWEEYFETFINGKVVWGSWFDHVKGWWEMKDRHQILFLFYEDIKRDPKHEIRKVMQFMGKKVDETVLDKIVQETSFEKMKENPMTNRSTVSKSILDQSISSFMRKGTVGDWKNHFTVAQNERFDEIYRRKMEGTSINFCMEL
B2: Arg73Gln: SULT1C1 polypeptide having a glutamine at amino acid residue 73 in place of an arginine (protein)
chain: B1 chain with A60D, R73Q
B3: Phe193Leu: SULT1C1 polypeptide having a leucine residue at amino acid 193 in place of a phenylalanine (protein)
chain: B1 chain with A60D, F193L
B4: Asp200Val: SULT1C1 polypeptide having a valine at amino acid 200 in place of an aspartic acid (protein)
chain: B1 chain with A60D, D200V
B5: Thr239Ala: SULT1C1 polypeptide having an alanine at amino acid 239 in place of a threonine (protein)
chain: B1 chain with A60D, T239A
B6: Asp200Val/ Thr239Ala: double variant SULT1C1 polypeptide with a valine at amino acid 200 and an alanine at amino acid 239 (protein)
chain: B1 chain with A60D, D200V, T239A
B7: Ser255Ala: SULT1C1 polypeptide having an alanine at amino acid 255 in place of a serine (protein)
chain: B1 chain with A60D, S255A
B8: wild type: reference human SULT1C1 polypeptide (SEQ ID NO:2, GenBank U66036), recombinantly expressed in COS-1 cells (protein, listed as Homo sapiens)
chain: B1 chain with A60D
B9: Ser111Phe: SULT1C1 polypeptide having a phenylalanine at amino acid 111 in place of a serine (protein)
chain: B1 chain with A60D, S111F

Each molecule was assayed on SULT1C1 (assay: SULT1C1 enzyme activity assay: sulfate conjugation of 4-nitrophenol with 35S-PAPS, COS-1 cytosol of recombinant allozymes). Conditions: apparent Km for PAPS, in the presence of 10 mM 4-NP, six PAPS concentrations 0.0625 μM to 2 μM.
Assay type: biochemical, human
Procedure: In some embodiments, activity of SULT1C1 polypeptides is altered relative to the reference SULT1C1. […] Other allozymes can have increased activity relative to the reference SULT1C1. Activity of SULT1C1 polypeptides can be assessed in vitro using a sulfate acceptor substrate such as 4-nitrophenol (4-NP, Sigma Chemical Co., St. Louis, Mo.) and a donor sulfate molecule such as PAPS. In general, recombinant SULT1C1 polypeptides can be incubated at 37° C. with 10 mM of sulfate acceptor substrate in a potassium phosphate buffer (5 mM, pH 7.4) and 0.4 μM labeled PAPS (e.g., ^35S-PAPS from New England Nuclear Life Science Products, Inc., Boston Mass.). Reactions can be stopped by precipitating PAPS and SULT1C1 polypeptide (e.g., with barium hydroxide, barium acetate, and zinc sulfate). After centrifugation of the reaction, radioactivity in the supernatant is assessed. SULT1C1 activity is expressed as nmoles of sulfate conjugated product formed per hour of incubation. See, Campbell, N. R. C. et al., Biochem. Pharmacol., 36:1435-1446 (1987).
Other biochemical properties of allozymes, such as apparent Km values, also can be altered relative to the reference SULT1C1. Apparent Km values can be calculated, for example, by using the method of Wilkinson with a computer program written by Cleland. Wilkinson, Biochem. J., 80:324-332 (1961); and Cleland, Nature, 198:463-365 (1963). As described herein, the apparent Km values for PAPS vary 7-fold among the allozymes tested (Asp60Ala, Arg73Gln, Phe193Leu, Asp200Val, Thr239Ala, and Ser255Ala).
COS-1 Cell Expression: Nine different SULT1C1 expression constructs were made using the p91023(B) expression vector. See, Wong et al., Science (1985) 228:810-815, for a description of the p91023(B) vector. Eight of the constructs were designed to express variant SULT1C1 polypeptides, while the remaining construct was designed to express a wild type SULT1C1. All SULT1C1 cDNA sequences used to create the expression constructs were created by site directed mutagenesis using the method described by Ho et al., Gene (1989) 77(l):51-9. Each SULT1C1 cDNA was amplified by PCR and subcloned into the EcoRI restriction site of the eukaryotic expression vector p91023(B). After subcloning, all inserts were sequenced to assure that no spurious nucleotide point mutations had been introduced during the PCR amplifications. […] As a control, a transfection was also performed with “empty” p91023(B), i.e., vector lacking an insert, to make it possible to correct for endogenous COS-1 cell SULT activity. The control plasmid pSV-β-galactosidase (Promega, Madison, Wis.) was cotransfected with each SULT1C1 construct to make it possible to correct for transfection efficiency. Two independent transfections, each consisting of three separate plates, were performed with each of the expression constructs. After 48 hours in culture, the transfected cells were harvested and high speed supernatant (HSS) cytosol preparations were prepared as described by Wood, T. C. et al., Biochem. Biophys. Res. Commun., 198:1119-1127 (1994). Aliquots of these cytosol preparations were stored at −80° C. prior to assay.
Enzyme Assays: β-galactosidase activity in each of the COS-1 HSS preparations was measured with the β-galactosidase Enzyme Assay System (Promega, Madison, Wis.). SULT1C1 enzyme activity was measured with an assay that involves sulfate conjugation of a sulfate acceptor substrate, 4-nitrophenol (4-NP), in the presence of [^35S]-3′-phosphoadenosine-5′-phosphosulfate (PAPS), the sulfate donor for the reaction. See, Campbell, N. R. C. et al., Biochem. Pharmacol., 36:1435-1446 (1987). The HSS preparations of recombinant SULT1C1 variant proteins described above were used for the activity studies without any further purification. The protein concentration of each recombinant protein preparation was determined by the dye-binding method of Bradford with bovine serum albumin (BSA) as a standard. […]
B1 gave a Km of 4 ± 0.47 µM. B2 gave a Km of 0.57 ± 0.15 µM. B3 showed a Km of 2.95 ± 0.27 µM. Molecule B4 has a Km of 1.2 ± 0.12 µM. Work on B5 yielded a Km of 1.14 ± 0.11 µM. With B6 the Km was 1.82 ± 0.14 µM. Molecule B7 has a Km of 0.56 ± 0.06 µM. B8 showed a Km of 0.77 ± 0.04 µM.

Same assay, conditions: recombinant allozyme in COS-1 cytosol; 10 mM 4-NP, 0.4 μM 35S-PAPS, pH 7.4; percentage of wild type SULT1C1 enzyme activity
With B1 the “% WT activity” value was 13.9 ± 0.3%. B2 was tested, and the “% WT activity” value was 14.5 ± 1.9%. For B9, the “% WT activity” value was 0%. In the case of B3, the “% WT activity” value is reported as 39.3 ± 1.4%. B4 was tested, and the “% WT activity” value was 48.1 ± 4.2%. In the case of B5, the “% WT activity” value is reported as 52.6 ± 1.7%. With B6 the “% WT activity” value was 49.3 ± 2.8%. For B7, the “% WT activity” value was 98.9 ± 5.9%. With B8 the “% WT activity” value was 100%.

Same assay, conditions: statement in words
B1 was tested, and the “activity relative to the reference (wild type) SULT1C1” value (“activity relative to the reference” for short) was “reduced activity”. For B2, the “activity relative to the reference” value was “reduced activity”. With B9 the “activity relative to the reference” value was “reduced activity”. For B3, the “activity relative to the reference” value was “reduced activity”. B4 was tested, and the “activity relative to the reference” value was “reduced activity”. In the case of B5, the “activity relative to the reference” value is reported as “reduced activity”. B6 was tested, and the “activity relative to the reference” value was “reduced activity”. In the case of B7, the “activity relative to the reference” value is reported as “comparable to the reference SULT1C1”.
